Where no end group is shown, it is not given here. The star is where a group is joined. Biotin = O=C1N[C@H]2[C@H](CS[C@H]2CCCCC(=O)*)N1; AEEA = NCCOCCOCC(=O)O
Tests used:
Pertussis toxin (PT) [1] = target: T1, Pertussis toxin (PT) (Bordetella pertussis, UniProt P04977 35-269; P04978 28-226; P04979 29-227; P0A3R5 43-152; P04981 35-133); assay: BIAcore 2000, 2.5-100 nM peptide over PT amine coupled to a CM5 chip (6000 RU), HBS/EP, room temperature
T1 construct: mature; also called purified PT; biotinylated PT

Pertussis toxin (PT) [2] = target: T1, Pertussis toxin (PT); assay: 20 pmol sepharose-immobilized peptide with 100 pmol (500 nM) PT, bound PT quantified by gel, 1:1 ratio assumed
Pertussis toxin (PT) [3] = target: T1, Pertussis toxin (PT); assay: 35S-labelled, His-tag purified free peptide (TNT expressed) on biotinylated PT on streptavidin magnetic beads, scintillation counting (test 1)
Method: (§1) By this measure, those bated with biotinylated PT immobilized on streptavidin-magnetic beads for 1 h at RT. The beads were washed 3× with HBS-buffer and then resuspended in water and analyzed by liquid scintillation counting. In control experiments each candidate was incubated with streptavidin beads only (without PT).

Pertussis toxin (PT) [4] = target: T1, Pertussis toxin (PT); assay: as above; remark: listed apart in the source
Method: as §1

Pertussis toxin (PT) [5] = target: T1, Pertussis toxin (PT); assay: ~200 pmol peptide on streptavidin sepharose with 100 pmol purified PT, gel and silver staining

B1: synthetic biotinylated peptide pp26 9 n (Seq # 197588-1) (peptide)
peptide: {Biotin-AEEA}-RSNVIPLNEVWYDTGWDRPHRSRLSIDDDA
notes: also called pp26 peptide 9; pp26 clone 9
Kd (Pertussis toxin (PT) [1]): 7.5 nM | koff (Pertussis toxin (PT) [1]): 0.001 s⁻¹ | kon (Pertussis toxin (PT) [1]): 130000 M⁻¹ s⁻¹ | Fraction of binding active peptide (Pertussis toxin (PT) [2]): > 50%

B2: gurmarin variant # 9 (seq # 194259) (peptide)
chain: MHHHHHHSGSSSGSGCVKKDELCARWDLVCCEPLECIYTSELYATCGSGSSGSS
binding result (Pertussis toxin (PT) [3]): binds

B3: gurmarin variant # 12 (seq # 194297) (peptide)
chain: MHHHHHHSGSSSGSGCVKKDELCVFYFPNCCEPLECRWVNDNYGWCGSGSSGSS
binding result (Pertussis toxin (PT) [3]): binds

B4: gurmarin variant # 14 (seq # 194479) (peptide)
chain: MHHHHHHSGSSSGSGCVKKDELCTTASKSCCEPLECKWTNEHFGTCGSGSSGSS
binding result (Pertussis toxin (PT) [3]): binds

B5: gurmarin variant # 15 (seq # 194511) (peptide)
chain: MHHHHHHSGSSSGSGCVKKDELCSQSVPMCCEPLECKWFNENYGICGSGSSGSS
binding result (Pertussis toxin (PT) [3]): binds

B6: gurmarin variant # 16 (seq # 194533) (peptide)
chain: MHHHHHHSGSSSGSGCVKKDELCARWDLVCCEPLECIYTSELYATCGSGSSGSS
binding result (Pertussis toxin (PT) [3]): binds

B7: gurmarin variant # 10 (seq # 194264) (peptide)
chain: MHHHHHHSGSSSGSGCVKKDELCELAVDECCEPLECFQMGHGFKRCGSGSSGSS
binding result (Pertussis toxin (PT) [3]): binds

B8: gurmarin variant # 11 (seq # 194328) (peptide)
chain: MHHHHHHSGSSSGSGCVKKDELCNWVTPMRCEPLECLGHGLGYAYCGSGSSGSS
binding result (Pertussis toxin (PT) [3]): binds

B9: PP26 variant # 5 (seq # 197557) (peptide)
chain: MGRGSHHHHHHARSSHCRHRNCHTITRGNMRIETPNNIRKDANAPKASAI
binding result (Pertussis toxin (PT) [4]): binds

B10: PP26 variant # 6 (seq # 197596) (peptide)
chain: MGRGSHHHHHHARSTMNTNRMDIQRLMTNHVKRDSSPGSIDANAPKASAI
binding result (Pertussis toxin (PT) [4]): binds

B11: PP26 variant # 14 (seq # 197825) (peptide)
chain: MGRGSHHHHHHARSWQPEVKMSSLVDTSQTVGAAVETRTTDANAPKASA
binding result (Pertussis toxin (PT) [4]): binds

B12: PP26 variant # 15 (seq # 198000) (peptide)
chain: MGRGSHHHHHHARSWRDTRKLHMRHYFPLAIDSYWDHTLRDANAPKASAI
binding result (Pertussis toxin (PT) [4]): binds

B13: synthetic biotinylated peptide pp26 5 c (Seq # 197557-1) (peptide)
peptide: RSSHCRHRNCHTITRGNMRIETPNNIRKDAK(Biotin)
modifications: cysteine pairing not given here
binding result (Pertussis toxin (PT) [5]): binds

B14: synthetic biotinylated peptide pp26 5 n (Seq # 197557-2) (peptide)
peptide: {Biotin-AEEA}-RSSHCRHRNCHTITRGNMRIETPNNIRKDA
modifications: cysteine pairing not given here
Fraction of binding active peptide (Pertussis toxin (PT) [2]): > 5%

B15: synthetic biotinylated peptide pp26 15 n (Seq # 198000-1) (peptide)
peptide: {Biotin-AEEA}-RSWRDTRKLHMRHYFPLAIDSYWDHTLRDA
notes: also called pp26 peptide 15; pp26 clone 15
Fraction of binding active peptide (Pertussis toxin (PT) [2]): > 12.5%

B16: synthetic biotinylated peptide gurmarin 9 n (Seq # 194259-1) (peptide)
peptide: {Biotin-AEEA}-SGCVKKDELCARWDLVCCEPLECIYTSELYATCG
modifications: cysteine pairing not given here
notes: also called gurm 9n; gurmarin peptide 9
Fraction of binding active peptide (Pertussis toxin (PT) [2]): > 12.5%

B17: synthetic biotinylated peptide gurmarin 10 n (Seq # 194264-1) (peptide)
peptide: {Biotin-AEEA}-SGCVKKDELCELAVDECCEPLECFQMGHGFKRCG
modifications: ends and bridges not checked
notes: also called gurm 10n
Fraction of binding active peptide (Pertussis toxin (PT) [2]): > 5%

B18: synthetic biotinylated peptide gurmarin 15 n (Seq # 194511-1) (peptide)
peptide: {Biotin-AEEA}-SGCVKKDELCSQSVPMCCEPLECKWFNENYGICGS
modifications: ends and bridges not checked
notes: also called gurm 15n; gurmarin peptide 15
Fraction of binding active peptide (Pertussis toxin (PT) [2]): > 50%

B19: synthetic biotinylated peptide gurmarin 19 n (Seq # 194737-1) (peptide)
peptide: {Biotin-AEEA}-SGCVKKDELCELAIDECCEPLECTKGDLGFRKCG
modifications: ends and bridges not checked
notes: also called gurm 19n
Fraction of binding active peptide (Pertussis toxin (PT) [2]): > 5%

From US8299210 (Sanofi, dated 2012)
